{"source": "patent US20200190193A1", "about": "(INHIBRX, published 2020)", "binders": {"B1": {"name": "hz18H10v7 PD-1 sdAb-Fc fusion protein (humanized variant of 18H10) (Fc fusion)", "chain": "EVQLVESGGGEVQPGGSLRLSCAASGSITGANTMGWYRQAPGKQRDLVALIGNYVTHYAESVKGRFTISRDNAKNTVYLQMSSLRAEDTAVYYCYLYTDNLGTSWGQGTLVTVKP", "notes": "also called humanized 18H10 (hzv7); hzv7; not shown: hinge/linker and Fc of the sdAb-Fc fusion are not specified for the humanized variants"}}, "molecular_target": "human PD-1 (programmed cell death protein-1) (human, UniProt Q15116 25-288)", "sequence (Q15116 25-288 limits assumed)": "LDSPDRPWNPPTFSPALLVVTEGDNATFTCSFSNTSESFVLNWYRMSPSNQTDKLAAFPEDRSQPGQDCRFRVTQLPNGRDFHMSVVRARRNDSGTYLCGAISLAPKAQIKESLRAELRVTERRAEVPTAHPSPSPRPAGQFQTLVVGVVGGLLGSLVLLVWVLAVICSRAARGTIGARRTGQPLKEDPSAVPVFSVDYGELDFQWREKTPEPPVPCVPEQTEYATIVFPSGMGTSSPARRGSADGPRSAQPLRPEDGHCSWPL", "test": "flow cytometry on enriched, anti-CD3-activated human T cells; sdAb-Fc titrated 167 nM to 0.00847 nM, anti-human IgG Alexa Fluor 647 detection", "data": [{"binder": "B1", "values": [{"measurement": "binding result", "value": "binds"}]}]}
